Two molecules from US10088479B2, “Biomarker and uses thereof” (ISIS INNOVATION LIMITED, priority 2014, dated 2018) can be followed below.

Assay [1] concerns primary human macrophages. The assay is described as follows: Cytokine synthesis (ELISA) in primary human macrophages stimulated with tenascin-C or its domains. It counts as cell-based. To be noted: 24 h. The method, then: Human monocytes were isolated from peripheral blood (London Blood Bank) and macrophages were derived from monocytes after differentiation for 4 days with 100 ng/ml of M-CSF as previously described (Foxwell (1998)).
(§1) Immediately after isolation, RA membrane cells and macrophages were cultured at 1×10^5 cells/well in RPMI 1640 containing 10% (v/v) FBS and 100 U/ml (Units/ml) penicillin/streptomycin in 96-well tissue culture plates for 24 hours before stimulation. Synovial fibroblasts (used only at either passage number 2 or 3) were cultured at 1×10^4 cells/well in DMEM containing 10% (v/v) FBS and 100 U/ml penicillin/streptomycin in 96-well tissue culture plates for 24 hours before stimulation.
Cells were incubated for 24 hours at 37° C. with the indicated doses of tenascin-C and recombinant tenascin-C fragments (1.0 μM-1.0 nM). […]
(§2) Supernatants were subsequently examined for the presence of the cytokines TNF-α, IL-6, and IL-8 by enzyme-linked immunosorbent assay (ELISA) according to the manufacturer's instructions. Absorbance was read on a spectrophotometric ELISA plate reader (Labsystems Multiscan Biochromic, Vantaa, Finland) and analyzed using the Ascent software program (Thermo Labsystems, Altrincham, UK).
Background: ELISA stands for enzyme-linked immunosorbent assay.

Assay [2] has as its system RA synovial fibroblasts. The assay is described as follows: Cytokine synthesis (ELISA) in RA synovial fibroblasts stimulated with tenascin-C, FBG or LPS. The conditions noted are these: 24 h; for cytokine synthesis (IL-6, IL-8) in synovial fibroblasts: LPS 10 ng/ml. It counts as cell-based, human.
Text: (§3) RA membrane cells (representing a mixed population of all synovial cell types) were to isolated from synovial membranes obtained from patients undergoing joint replacement surgery as previously described (Brennan (1989)). RA synovial fibroblasts were isolated from the mixed population of RA membrane cells as previously described (Brennan (1989)). The study was approved by the local Trust ethics committee (Riverside NHS Research Committee), and waste tissue (synovium after joint replacement surgery) was obtained only after receiving signed informed consent from the patient and anonymyzing the tissue to protect patient identity.
as §1
(§4) Cells were incubated for 24 hours at 37° C. with the indicated doses of tenascin-C and recombinant tenascin-C fragments (1.0 μM-1.0 nM). Cells were also stimulated where indicated with LPS (1 ng/ml for human macrophages, 10 ng/ml for human fibroblasts, RA membrane cells and HEKs, 100 ng/ml for MEFS and BMDMs and 10 ng/ml for HEKS), PAM3 (10 ng/ml for human macrophages, human fibroblasts, and HEKs, 100 ng/ml for MEFs and BMDMs), murine IL-1 (5 ng/ml for MEFS) and murine TNF-α (100 ng/ml for MEFS). Unless specifically stated otherwise rough LPS was used for in vitro studies.
as §2

For assay [3], the system named is serum from RA patients. Briefly: Western blot of citrullinated tenascin-C probed with serum from RA patients or healthy controls. It counts as binding, human. The conditions noted are these: sera from RA patients or normal healthy controls. As for the experimental part:
33.33 ul of citrullination reaction (cit-TNC alone or cit-TNC combined with cit-FBG) was loaded into NuPAGE® Novex 4-12% Bis-tris gel using a 1.0 mm 2D single lane well.
After electrophoresis proteins were transferred to nitrocellulose and the membrane blocked and then cut into strips (up to 8 strips ˜0.7 cm wide). Strips were incubated with serum from RA patients or normal healthy individuals diluted 1:100 in 5% milk TBS-tween. Strips were incubated in 15 ml falcon tubes on rollers 1 h room temperature, then washed 3×5 min, 1×15 min in tubes with TBS-Tween. Strips were then incubated with secondary mouse anti-human Ig 1:5000 1 h in room temperature, then washed 3×5 min, 1×15 min in the dish with TBS-tween. Strips were finally incubated with ECL reagents and exposed to film.

The subject of assay [4] is synovial membranes from RA patients. Briefly: Cytokine synthesis in RA synovial membrane cells stimulated with FBG. It counts as cell-based, human. The conditions noted are these: FBG 1.0-0.01 μM, 24 h.
Text: as §3
Immediately after isolation, RA membrane cells and macrophages were cultured at 1×10^5 cells/well in RPMI 1640 containing 10% (v/v) FBS and 100 U/ml (Units/ml) penicillin/streptomycin in 96-well tissue culture plates for 24 hours before stimulation. […]
as §2

Assay [5] relates to knee joint. Briefly: Intra-articular injection of FBG into mouse knee joint, histology. It counts as in vivo, mice. To be noted: for joint inflammation, histology: wild type mice. As for the experimental part:
Wild type mice were anesthetized by intraperitoneal injection of 150 μl of Hypnorm diluted 1:10 in sterile water and then injected with 100 ng, 1 or 3 μg FBG in 10 μl of sterile PBS into the right knee joint using a sterile 33-gauge microcannula. Control mice received an injection of 10 μl PBS alone or were not injected.
On days 3 and 7, mice were euthanized, the knee joints were excised and fixed in 10% (volume/volume) buffered formalin, decalcified, with 10% EDTA and processed to paraffin.
Coronal tissue sections (4 μm) were cut at 7 depths throughout the joint; 80 μm apart and stained with hematoxylin and eosin or Safranin-O to assess joint pathology. Histopathologic changes were scored using the following parameters as described in Van Lent (2006).
Inflammation (the influx of inflammatory cells into synovium (infiltrate) and the joint cavity (exudates), was graded using an arbitrary scale from 0 (no inflammation) to 3 (severe inflammation). Chondrocyte death was determined as the percentage of cartilage area containing empty lacunae in relation to the total area. Cartilage surface erosion was determined as the amount of cartilage lost in relation to the total cartilage area. Bone destruction was determined in 10 different areas of the total knee joint section. Destruction was graded on a scale of 0 (no damage) to 3 (complete loss of bone structure). Histological analysis was performed by an investigator who was blinded to the experimental groups. The mean score for each animal in an experimental group was calculated by averaging the histopathologic scores in at least 5 section depths per joint.

Assay [6] deals with human dermal fibroblasts (HDF). Briefly: Cell adhesion to coated FBG, crystal violet. It counts as cell-based. The conditions noted are these: coated wells, 45 minutes. As for the experimental part:
(§5) (A) The sequence identified to bind integrin αvβ3 is shown in white (Yokoyama et al., 2000). Within this sequence two Arginines (shown in black) were identified to be citrullinated. (B) Wells of a 96 well plate were coated with different concentrations of FBG, citrullinated FBG (cFBG), FBG incubated in buffer without Calcium (FBG —Ca^2+), or FBG incubated without PAD (FBG —PAD). As a positive control wells were coated with Fibronectin (FN) (1 ug/ml), and coating with BSA (10 mg/ml) served as negative control. Plates were incubated with human dermal fibroblasts (HDF) or synovial fibroblasts from RA patients (RAF) for 45 minutes and adhesion was measured by determining absorbance of attached cells after staining with crystal violet (0.1%). Data are shown as the mean of at least four independent experiments+s.e.m., *=p<0.05, **=p<0.01.

For assay [7], the system named is synovial fibroblasts from RA joints (RAF). The assay is described as follows: Cell adhesion to coated FBG, crystal violet. The class given is cell-based, human. To be noted: coated wells, 45 minutes. The method, then:
as §5

In assay [8] the test system is embryonic fibroblasts or macrophages. The assay is described as follows: Cytokine synthesis in embryonic fibroblasts or macrophages from MyD88, TLR2 or TLR4 deficient mice. The conditions noted are these: FBG 1 μM, 24 h. The class given is cell-based. As for the experimental part:
MEFs express high levels of mRNA of all 9 murine TLRs and are specifically and highly responsive to TLR ligand activation. […] MEFs were isolated from d13 embryos harvested from age-matched, pregnant female wild type, TLR2, TLR4 and null mice (as described in Todaro (1963)). Fibroblasts were cultured at 2×10^4 cells/well in DMEM containing 10% (v/v) FBS and 100 U/ml penicillin/streptomycin in 96-well tissue culture plates for 24 hours before stimulation.
BMDMs were derived by aspirating the femurs of age matched female wild type, TLR2 and TLR4 null mice as described in Butler (1999)) and culturing the cells for 7 days in DMEM, 20% (v/v) FBS, 10 ml/L (v/v) antibiotic-antimycotic solution PSA, 50 μM β-Mercaptoethanol and 10 ng/ml M-CSF. Macrophages were then cultured at 1×10^5 cells/well in DMEM, 20% (v/v) FBS, 10 ml/L (v/v) antibiotic-antimycotic solution PSA, 50 μM β-Mercaptoethanol in 96-well tissue culture plates for 24 hours before stimulation.
as §4, §2

As to “tenascin-C: purified recombinant full-length human tenascin-C, native (non-citrullinated)”, the “production of TNF-α, IL-6 and IL-8” value in assay [1] (human macrophages) is “dose dependently stimulated”. For the same molecule, in assay [2], the “TNF-α synthesis in fibroblasts” value is “Neither LPS nor tenascin-C induced TNF-α synthesis” and the “cytokine synthesis (IL-6, IL-8) in synovial fibroblasts” value is on record as “only induced IL-6 synthesis”. Moreover, the “reactivity with sera in blots” value in assay [3] was “No reactivity”.

B1: FBG: recombinant fibrinogen-like globe domain of human tenascin-C (protein)
chain: GLLYPFPKDCSQAMLNGDTTSGLYTIYLNGDKAEALEVFCDMTSDGGGWIVFLRRKNGRENFYQNWKAYAAGFGDRREEFWLGLDNLNKITAQGQYELRVDLRDHGETAFAVYDKFSVGDAKTRYKLKVEGYSGTAGDSMAYHNGRSFSTFDKDTDSAITNCALSYKGAFWYRNCHRVNLMGRYGDNNHSQGVNWFHWKGHEHSIQFAEMKLRPSNFRNLEGRRKRA
modifications: left off: small tags and cut ends
notes: recombinant fibrinogen-like globe domain of human tenascin-C
On to B1, for which, in assay [1] (1.0 μM tenascin-C domains), the “TNF-α synthesis in human macrophages” value was “stimulated”. Further, the “cytokine synthesis (IL-6, IL-8) in synovial fibroblasts” value in assay [2] was “did not induce IL-8 synthesis”. Further, the “synthesis of IL-6, IL-8 and TNF-α in RA synovial membranes” value in assay [4] is reported as “further enhanced synthesis of all these cytokines”. In addition, the joint inflammation entry in assay [5] (TLR2 null mice, 1 μg FBG intra-articular, 3 days) was “able to induce joint inflammation”. For the same molecule, the “joint inflammation, histology” value is “No inflammation or proteoglycan loss” in assay [5] (100 ng FBG intra-articular); “inflammatory cell infiltration (FIG. 6f), mild synovitis, pannus formation (FIG. 6g) and proteoglycan loss (FIG. 6h)” in assay [5] (1 μg FBG intra-articular, 3 days); “A similar response” in assay [5] (3 μg FBG intra-articular). For the same molecule, in assay [6], the “adhesion of HDF” value is given as “proadhesive”. For the same molecule, the “adhesion of RAF” value in assay [7] was “proadhesive”. Further, in assay [8] (MyD88 -/-), the “cytokine synthesis in MyD88 deficient embryonic fibroblasts” value was “does not stimulate cytokine synthesis”. Also, the “cytokine synthesis in TLR2 deficient embryonic fibroblasts or macrophages” value in assay [8] (TLR2 -/-) is given as “unaffected”. For the same molecule, the “cytokine synthesis in TLR4 deficient embryonic fibroblasts or macrophages” value in assay [8] (TLR4 -/-) is on record as “does not stimulate cytokine synthesis”.
